Here are results for 1 molecule from US9378557B2, “Microfluidic device for assessing object/test material interactions” (Dublin City University, priority 2008, dated 2016).

The experiment relates to platelets. The experiment is described as follows: Shear-activated platelet translocation on von Willebrand Factor in the microfluidic device (blood perfusion assay, platelet tracking software). Type of experiment: cell-based. The note with it: whole blood treated with ReoPro 20 μg/ml for 20 minutes; vWF-coated test area; arterial shear rate 1500 s-1; compared to normal untreated platelets (FIG. 13). The text has this:
The microfluidic device was used to measure the shear-activated response of platelets in the presence of von Willebrand Factor (vWF). In particular, the effect of platelet specific GPIIb-IIIa antagonist (abciximab, ReoPro) on platelet function was examined. Abciximab (trade name ReoPro, distributed by Eli Lilly) is a platelet aggregation inhibitor used mainly during and after coronary artery procedures to prevent platelets from sticking together, by platelet GPIIb-IIIa-mediated aggregation, and subsequent thrombus formation.
Blood Draw: Blood was obtained from volunteers by venopuncture using a 19-g needle attached to a polypropylene syringe containing anticoagulant solution. […]
Matrix deposition on microfluidic device: The components of the flow cells were assembled using a jig to ensure patterned psa layers are aligned. […] Using silastic laboratory tubing, von Willebrand Factor solution (˜100 ug/ml protein solution in Phosphate Buffered Saline solution (PBS) was injected to fill the flow cell. The platform was then left to sit for 2 hours to immobilise the vWF on the glass base. (The flow cells were blocked with 1% BSA solution (in PBS) for 1 hour at room temperature). Deposition of von Willebrand Factor was by coating through adsorption. The platforms were rinsed with PBS solution and were then ready for perfusion assays. […]

B1: abciximab (antibody, chains of the INN, looked up, V domains shown)
VH: EVQLQQSGTVLARPGASVKMSCEASGYTFTNYWMHWVKQRPGQGLEWIGAIYPGNSDTSYIQKFKGKAKLTAVTSTTSVYMELSSLTNEDSAVYYCTLYDGYYVFAYWGQGTLVTVSA
VL: EIVLTQSPVTLSVTPGDSVSLSCRASRDISNNLHWFQQTSHESPRLLIKYASQSMSGIPSRFSGSGSGTDFTLSINSVETEDFGMYFCQQTNSWPYTFGGGTKLEIK
modifications: Fab
notes: platelet specific GPIIb-IIIa antagonist
As to B1, the average velocity result is “increased” and the escape percentage entry is “increased”.
